From the supplement of paper PMC11246515 come the findings set out here.

± gives the standard deviation of the averaged measurements.

The data set can be described thus: total protein half-life in vivo (active degradation + dilution); higher = more stable protein.
Setting [1] is: E. coli NCM3722 delta-clpP delta-lon delta-hslV, growth: N-lim chemostat, doubling time 6 h.
The mark [2] stands for this setting: E. coli NCM3722 delta-clpP, growth: N-lim chemostat, doubling time 6 h.
[3] abbreviates: E. coli NCM3722 delta-hslV, growth: N-lim chemostat, doubling time 6 h.
[4] abbreviates: E. coli NCM3722 delta-lon, growth: N-lim chemostat, doubling time 6 h.
Setting [5] is: E. coli NCM3722 delta-smpB, growth: N-lim chemostat, doubling time 6 h.
The mark [6] stands for this setting: wild type E. coli NCM3722, growth: C-lim chemostat, doubling time 3 h.
[7] abbreviates: wild type E. coli NCM3722, growth: C-lim chemostat, doubling time 6 h.
Where [8] appears, read: wild type E. coli NCM3722, growth: C-lim chemostat, doubling time 12 h.
Where [9] appears, read: wild type E. coli NCM3722, growth: N-lim chemostat, doubling time 6 h.
[10] abbreviates: wild type E. coli NCM3722, growth: N-lim chemostat, doubling time 12 h.
The mark [11] stands for this setting: wild type E. coli NCM3722, growth: P-lim chemostat, doubling time 6 h.
Setting [12] is: wild type E. coli NCM3722, growth: P-lim chemostat, doubling time 12 h.

For “MPVITLPDGSQRHYDHAVSPMDVALDIGPGLAKACIAGRVNGELVDACDLIENDAQLSIITAKDEEGLEIIRHSCAHLLGHAIKQLWPHTKMAIGPVIDNGFYYDVDLDRTLTQEDVEALEKRMHELAEKNYDVIKKKVSWHEARETFANRGESYKVSILDENIAHDDKPGLYFHEEYVDMCRGPHVPNMRFCHHFKLMKTAGAYWRGDSNNKMLQRIYGTAWADKKALNAYLQRLEEAAKRDHRKIGKQLDLYHMQEEAPGMVFWHNDGWTIFRELEVFVRSKLKEYQYQEVKGPFMMDRVLWEKTGHWDNYKDAMFTTSSENREYCIKPMNCPGHVQIFNQGLKSYRDLPLRMAEFGSCHRNEPSGSLHGLMRVRGFTQDDAHIFCTEEQIRDEVNGCIRLVYDMYSTFGFEKIVVKLSTRPEKRIGSDEMWDRAEADLAVALEENNIPFEYQLGEGAFYGPKIEFTLYDCLDRAWQCGTVQLDFSLPSRLSASYVGEDNERKVPVMIHRAILGSMERFIGILTEEFAGFFPTWLAPVQVVIMNITDSQSEYVNELTQKLSNAGIRVKADLRNEKIGFKIREHTLRRVPYMLVCGDKEVESGKVAVRTRRGKDLGSMDVNEVIEKLQQEIRSRSLKQLEE [P0A8M3]”, the “total protein half-life in vivo” value by setting is: under setting [1], 5.73 ± 0.81 h; under setting [2], 5.78 ± 1.1 h; under setting [3], 5.411 ± 0.034 h; under setting [4], 6.36 ± 0.29 h; under setting [5], 5.34 ± 0.06 h; under setting [6], 3.18 ± 0.052 h. Also, the “total protein half-life in vivo” value is, setting by setting: under setting [7], 6.43 ± 0.58 h; under setting [8], 11.3 ± 0.88 h; under setting [9], 5.35 ± 0.11 h; under setting [10], 9.648 ± 0.077 h; under setting [11], 5.99 ± 0.14 h; under setting [12], 13.3 ± 0.97 h.

For “MTSLVSLENVSVSFGQRRVLSDVSLELKPGKILTLLGPNGAGKSTLVRVVLGLVTPDEGVIKRNGKLRIGYVPQKLYLDTTLPLTVNRFLRLRPGTHKEDILPALKRVQAGHLINAPMQKLSGGETQRVLLARALLNRPQLLVLDEPTQGVDVNGQVALYDLIDQLRRELDCGVLMVSHDLHLVMAKTDEVLCLNHHICCSGTPEVVSLHPEFISMFGPRGAEQLGIYRHHHNHRHDLQGRIVLRRGNDRS [P0A9X1]”, the “total protein half-life in vivo” value reads like this: under setting [1], 5.6 ± 0.31 h; under setting [2], 5.12 ± 0.41 h; under setting [3], 2.88 ± 1.1 h; under setting [4], 2 ± 0.1 h; under setting [5], 4.75 ± 2.8 h; under setting [6], 2.63 ± 0.088 h. The “total protein half-life in vivo” value came out at 4.39 ± 0.11 h under setting [7]; 6.41 ± 2.1 h under setting [8]; 2.6 ± 0.37 h under setting [9]; 5.01 ± 2 h under setting [10]; 4.12 ± 0.059 h under setting [11]; 7.83 ± 2 h under setting [12].

With “MADEIDAMALYRAWQQLDNGSCAQIRRVSEPDELRDIPAFYRLVQPFGWENPRHQQALLRMVFCLSAGKNVIRHQDKKSEQTTGISLGRALANSGRINERRIFQLIRADRTADMVQLRRLLTHAEPVLDWPLMARMLTWWGKRERQQLLEDFVLTTNKNA”, under setting [1], the “total protein half-life in vivo” value came to 5.62 ± 1.1 h.

Take “MSDIALTVSILALVAVVGLFIGNVKFRGIGLGIGGVLFGGIIVGHFVSQAGMTLSSDMLHVIQEFGLILFVYTIGIQVGPGFFASLRVSGLRLNLFAVLIVIIGGLVTAILHKLFDIPLPVVLGIFSGAVTNTPALGAGQQILRDLGTPMEMVDQMGMSYAMAYPFGICGILFTMWMLRVIFRVNVETEAQQHESSRTNGGALIKTINIRVENPNLHDLAIKDVPILNGDKIICSRLKREETLKVPSPDTIIQLGDLLHLVGQPADLHNAQLVIGQEVDTSLSTKGTDLRVERVVVTNENVLGKRIRDLHFKERYDVVISRLNRAGVELVASGDISLQFGDILNLVGRPSAIDAVANVLGNAQQKLQQVQMLPVFIGIGLGVLLGSIPVFVPGFPAALKLGLAGGPLIMALILGRIGSIGKLYWFMPPSANLALRELGIVLFLSVVGLKSGGDFVNTLVNGEGLSWIGYGALITAVPLITVGILARMLAKMNYLTMCGMLAGSMTDPPALAFANNLHPTSGAAALSYATVYPLVMFLRIITPQLLAVLFWSIG”: the “total protein half-life in vivo” value was found to be 5.7 ± 0.54 h under setting [2]; 6.35 h under setting [3]; 5.52 ± 0.89 h under setting [4]; 6.03 ± 0.39 h under setting [5]; 3.27 ± 0.38 h under setting [6]; 5.33 ± 1.1 h under setting [7]. Further, the “total protein half-life in vivo” value was 11.4 ± 1.6 h under setting [8]; 5.98 ± 0.39 h under setting [9]; 10.4 ± 0.3 h under setting [10]; 5.7 ± 0.059 h under setting [11]; 9.94 ± 1.5 h under setting [12].

On to “MSSNFRHQLLSLSLLVGIAAPWAAFAQAPISSVGSGSVEDRVTQLERISNAHSQLLTQLQQQLSDNQSDIDSLRGQIQENQYQLNQVVERQKQILLQIDSLSSGGAAAQSTSGDQSGAAASTTPTADAGTANAGAPVKSGNANTDYNAAIALVQDKSRQDDAMVAFQNFIKNYPDSTYLPNANYWLGQLNYNKGKKDDAAYYFASVVKNYPKSPKAADAMFKVGVIMQDKGDTAKAKAVYQQVISKYPGTDGAKQAQKRLNAM”, for which the “total protein half-life in vivo” value is 5.65 ± 0.36 h under setting [1]; 5.26 ± 0.17 h under setting [3]; 5.96 ± 0.72 h under setting [4]; 5.27 ± 1.5 h under setting [5]; 6.4 ± 1 h under setting [7]; 8.8 ± 1.9 h under setting [8]. The “total protein half-life in vivo” value under setting [9] amounted to 5.61 ± 0.1 h, the “total protein half-life in vivo” value under setting [10] came out at 11.3 ± 0.16 h, the “total protein half-life in vivo” value under setting [11] was determined as 5.31 ± 1.9 h and the “total protein half-life in vivo” value under setting [12] worked out at 11.6 ± 0.52 h.

“MRRTFTAEEKASVFELWKNGTGFSEIANILGSKPGTIFTMLRDTGGIKPHERKRAVAHLTLSEREEIRAGLSAKMSIRAIATALNRSPSTISREVQRNRGRRYYKAVDANNRANRMAKRPKPCLLDQNLPLRKLVLEKLEMKWSPEQISGWLRRTKPRQKTLRISPETIYKTLYFRSREALHHLNIQHLRRSHSLRHGRRHTRKGERGTINIVNGTPIHERSRNIDNRRSLGHWEGDLVSGTKNSHIATLVDRKSRYTIILRLRGKDSVSVNQALTDKFLSLPSELRKSLTWDRGMELARHLEFTVSTGVKVYFCDPQSPWQRGTNENTNGLIRQYFPKKTCLAQYTQHELDLVAAQLNNRPRKTLKFKTPKEIIERGVALTD [P0CF90]”: the “total protein half-life in vivo” value under setting [1] came out at 5.45 ± 0.8 h.

Take “MNIVITGGTGLIGRHLIPRLLELGHQITVVTRNPQKASSVLGPRVTLWQGLADQSNLNGVDAVINLAGEPIADKRWTHEQKERLCQSRWNITQKLVDLINASDTPPSVLISGSATGYYGDLGEVVVTEEEPPHNEFTHKLCARWEEIACRAQSDKTRVCLLRTGVVLAPDGGILGKMLPPFRLGLGGPIGSGRQYLAWIHIDDMVNGILWLLDNELRGPFNMVSPYPVRNEQFAHALGHALHRPAILRVPATAIRLLMGESSVLVLGGQRALPKRLEEAGFAFRWYDLEEALADVVR”: the “total protein half-life in vivo” value is, setting by setting: under setting [1], 7.07 ± 0.37 h; under setting [2], 6.1 ± 0.14 h; under setting [3], 6.36 ± 0.6 h; under setting [4], 5.86 ± 0.6 h; under setting [5], 5.71 ± 0.17 h; under setting [6], 3.25 ± 0.15 h. Also, the “total protein half-life in vivo” value under setting [7] came out at 5.86 ± 0.16 h; the “total protein half-life in vivo” value under setting [8] was found to be 11.09 ± 0.052 h; the “total protein half-life in vivo” value under setting [9] came out at 5.76 ± 0.032 h; the “total protein half-life in vivo” value under setting [11] was determined as 5.931 ± 0.026 h; the “total protein half-life in vivo” value under setting [12] was 12.38 ± 0.057 h.

With “MIEILHEYWKPLLWTDGYRFTGVAITLWLLILSVVIGGVLALFLAIGRVSSNKYIQFPIWLFTYIFRGTPLYVQLLVFYSGMYTLEIVKGTEFLNAFFRSGLNCTVLALTLNTCAYTTEIFAGAIRSVPHGEIEAARAYGFSTFKMYRCIILPSALRIALPAYSNEVILMLHSTALAFTATVPDLLKIARDINAATYQPFTAFGIAAVLYLIISYVLISLFRRAEKRWLQHVKPSSTH [P0AEU3]”, the “total protein half-life in vivo” value was more than 8 h under setting [1]; 6.1106 ± 0.00052 h under setting [2]; 6.07 h under setting [3]; 6.71 ± 0.91 h under setting [4]; 7.16 ± 0.54 h under setting [5]; more than 4 h under setting [6]. Also, the “total protein half-life in vivo” value under setting [7] came out at 5.71 ± 0.54 h; the “total protein half-life in vivo” value under setting [8] was 11.3 ± 1.3 h; the “total protein half-life in vivo” value under setting [9] was determined as 6.75 ± 0.49 h; the “total protein half-life in vivo” value under setting [10] amounted to 11 ± 3.6 h; the “total protein half-life in vivo” value under setting [11] was found to be 6.32 h; the “total protein half-life in vivo” value under setting [12] was determined as 11.92 ± 0.04 h.
